Reference: patent US20050008642A1

Molecular target: IGF-IR on cells (HT29, NCI H322M human tumor cells; 3T3 cells transfected with IGF-IR) (human) (UniProt P08069)
Assay: cell-based or functional assay

For αIR3 (antibody), the Akt/PKB phosphorylation in the absence of IGF-I (Western blot) was > 5 nM.
